These results are taken from paper PMC5171221.

For data set [1], the target named is T1, apododecin DtE (triple E variant) (Halobacterium salinarum, UniProt B0R5M0 1-68, E45A;del50-50;del51-51).
T1 sequence: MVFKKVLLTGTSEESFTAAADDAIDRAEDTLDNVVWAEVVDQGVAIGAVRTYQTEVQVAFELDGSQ
The experiment in a line: QCM-D.

Data set [2] addresses T1, apododecin DtE (triple E variant). In words: QCM-D. The source holds these as a separate data set.

Read-outs that look alike come from different tables or passages of the source.

B1: flavin-dsDNA 100 bp surface tether (dsDNA)
DNA 1: GTCACGATGGCCCAGTAGTT
DNA 2: AACTACTGGGCCATCGTGAC
DNA 3: CGCCGCCGCCGACGACGCCATCGACCGCGCGGAGGACACCCTCGACAACGTGGTGTGGGCGTCACGATGGCCCAGTAGTT
DNA 4: GCCCACACCACGTTGTCGAGGGTGTCCTCCGCGCGGTCGATGGCGTCGTCGGCGGCGGCGAACTACTGGGCCATCGTGAC
modifications: strand 1 5' flavin (CofC4); strand 2 5' (dithiane)3, on gold
As to B1, the binding result in data set [1] was “binds”.

B2: flavin-dsLNA 7 bp surface tether (XNA)
?: GGGCGAC
DNA: GTCGCCC
modifications: LNA; strand 1 5' flavin (CofC4); strand 2 5' 1,2-dithiane, on gold
B2: in data set [2], the binding result is recorded as “binds”.
